The subject of the data set is Escherichia coli TOP10. As to the kind of experiment: shrunken log2 fold change of peptide-encoding DNA abundance (4.5 h post-induction vs induction); higher = less antimicrobial activity (less host growth inhibition). The note with it: time post-induction: 4.5 h; library: site-saturation at positions 5, 18, 19, 20.
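Also: peptides expressed intracellularly from a pBAD plasmid library in pooled LB shake-flask culture, induced with 0.3% L-arabinose, DNA abundance read by NGS, three biological replicates, DESeq2 with apeglm shrinkage.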

Take RRIRMRPPRLPRPRPRPNQCPRP: the “shrunken log2 fold change” value was -0.198.
Regarding RRIRGRPPRLPRPRPRPNGQPRP, the “shrunken log2 fold change” value turned out to be 0.386.
With RRIRIRPPRLPRPRPRPWRKPRP, the “shrunken log2 fold change” value is -0.143.
As to RRIRVRPPRLPRPRPRPYLWPRP, the “shrunken log2 fold change” value is -0.269.
The same measure for RRIRTRPPRLPRPRPRPLRVPRP: 0.767; for RRIRRRPPRLPRPRPRPSQPPRP: 0.104; for RRIRIRPPRLPRPRPRPPDFPRP: 0.189.
On to RRIRSRPPRLPRPRPRPWPLPRP, for which the “shrunken log2 fold change” value is -0.293.
Take RRIRARPPRLPRPRPRPAAFPRP: the “shrunken log2 fold change” value was 0.787.
RRIRVRPPRLPRPRPRPFLAPRP: the “shrunken log2 fold change” value is -0.219.
The same measure for RRIRCRPPRLPRPRPRPKRVPRP: 0.267.
The same measure for RRIRDRPPRLPRPRPRPEQDPRP: 1.39; for RRIRQRPPRLPRPRPRPHGVPRP: -0.226.
The same measure for RRIRLRPPRLPRPRPRPCGRPRP: 0.147; for RRIRMRPPRLPRPRPRPRKAPRP: 1.09; for RRIRARPPRLPRPRPRPNVLPRP: 0.00594.
As for RRIRIRPPRLPRPRPRPYGGPRP, the “shrunken log2 fold change” value worked out at 0.00177.
Turning to RRIRHRPPRLPRPRPRPLDIPRP, the “shrunken log2 fold change” value was -0.105.
RRIRMRPPRLPRPRPRPAFCPRP: the “shrunken log2 fold change” value came out at 0.455.
For the sequence RRIRFRPPRLPRPRPRPKTWPRP, the “shrunken log2 fold change” value turned out to be 0.157.
As to RRIRKRPPRLPRPRPRPHAEPRP, the “shrunken log2 fold change” value turned out to be 0.126.
In the case of RRIRQRPPRLPRPRPRPFDLPRP, the “shrunken log2 fold change” value was -0.318.
The same measure for RRIRRRPPRLPRPRPRPRHSPRP: 0.226; for RRIRNRPPRLPRPRPRPMLFPRP: -0.301; for RRIRGRPPRLPRPRPRPGSCPRP: 1.03.
The same measure for RRIRLRPPRLPRPRPRPVNKPRP: -0.14; for RRIRARPPRLPRPRPRPSQSPRP: 0.0538.
The same measure for RRIRLRPPRLPRPRPRPDWGPRP: 0.222; for RRIRERPPRLPRPRPRPWAPPRP: -0.0362; for RRIRGRPPRLPRPRPRPQWIPRP: 0.518.
For RRIRDRPPRLPRPRPRPHLCPRP, the “shrunken log2 fold change” value is -0.0584.
Regarding RRIRARPPRLPRPRPRPWEAPRP, the “shrunken log2 fold change” value is 0.221.
As to RRIRARPPRLPRPRPRPMEFPRP, the “shrunken log2 fold change” value was -0.117.
The same measure for RRIRVRPPRLPRPRPRPIMCPRP: 0.0128; for RRIRFRPPRLPRPRPRPGRNPRP: -0.173; for RRIRMRPPRLPRPRPRPAQDPRP: 0.376.
Turning to RRIRKRPPRLPRPRPRPYAAPRP, the “shrunken log2 fold change” value is -0.102.
Consider RRIRHRPPRLPRPRPRPFAYPRP, for which the “shrunken log2 fold change” value was -0.0167.
For RRIRERPPRLPRPRPRPHLHPRP, the “shrunken log2 fold change” value is -0.485.
RRIRDRPPRLPRPRPRPIWLPRP: the “shrunken log2 fold change” value was determined as 0.0516.
Take RRIRWRPPRLPRPRPRPRKVPRP: the “shrunken log2 fold change” value amounted to 0.302.
For RRIRTRPPRLPRPRPRPKVDPRP, the “shrunken log2 fold change” value amounted to 0.195.
The same measure for RRIRARPPRLPRPRPRPNPNPRP: 0.187; for RRIRARPPRLPRPRPRPLCMPRP: -0.125; for RRIRQRPPRLPRPRPRPGRYPRP: -0.205.
The same measure for RRIRFRPPRLPRPRPRPECQPRP: -0.0729.
For RRIRHRPPRLPRPRPRPVWAPRP, the “shrunken log2 fold change” value was found to be 0.193.
The same measure for RRIRGRPPRLPRPRPRPWVEPRP: 0.129; for RRIRFRPPRLPRPRPRPRFRPRP: -0.0973; for RRIRTRPPRLPRPRPRPMILPRP: -0.0648.
As to RRIRHRPPRLPRPRPRPRAFPRP, the “shrunken log2 fold change” value was -0.146.
Take RRIRARPPRLPRPRPRPGVYPRP: the “shrunken log2 fold change” value is 0.011.
Regarding RRIRQRPPRLPRPRPRPQQPPRP, the “shrunken log2 fold change” value turned out to be 0.00789.
The same measure for RRIRARPPRLPRPRPRPDNKPRP: -0.24; for RRIRERPPRLPRPRPRPKEMPRP: -0.192; for RRIRSRPPRLPRPRPRPKSTPRP: -0.556.
Take RRIRFRPPRLPRPRPRPCTWPRP: the “shrunken log2 fold change” value is -0.0991.
The same measure for RRIRQRPPRLPRPRPRPEHTPRP: -0.0628; for RRIRPRPPRLPRPRPRPPEEPRP: 0.885.
On to RRIRERPPRLPRPRPRPNVRPRP, for which the “shrunken log2 fold change” value turned out to be 0.0403.
On to RRIRHRPPRLPRPRPRPELYPRP, for which the “shrunken log2 fold change” value is -0.215.
The same measure for RRIRMRPPRLPRPRPRPWNNPRP: -0.964; for RRIRCRPPRLPRPRPRPTILPRP: -0.646; for RRIRHRPPRLPRPRPRPMDPPRP: -0.385.
As for RRIRARPPRLPRPRPRPAMMPRP, the “shrunken log2 fold change” value worked out at 0.511.
The same measure for RRIRGRPPRLPRPRPRPSYRPRP: -0.144; for RRIRQRPPRLPRPRPRPDNEPRP: -0.359; for RRIRHRPPRLPRPRPRPAPAPRP: 0.289.
Turning to RRIRYRPPRLPRPRPRPWFWPRP, the “shrunken log2 fold change” value was -0.0261.
In the case of RRIRFRPPRLPRPRPRPGSEPRP, the “shrunken log2 fold change” value is -0.0634.
As for RRIRHRPPRLPRPRPRPISIPRP, the “shrunken log2 fold change” value was 0.0201.
The same measure for RRIRMRPPRLPRPRPRPCLIPRP: -0.0342.
With RRIRLRPPRLPRPRPRPYQTPRP, the “shrunken log2 fold change” value stood at 0.0345.
The same measure for RRIRDRPPRLPRPRPRPYSTPRP: -0.0663.
The same measure for RRIRARPPRLPRPRPRPMLKPRP: 0.216; for RRIRVRPPRLPRPRPRPAFYPRP: -0.135; for RRIRARPPRLPRPRPRPYCNPRP: -0.378.
With RRIRERPPRLPRPRPRPLQPPRP, the “shrunken log2 fold change” value came to 0.468.
The same measure for RRIRIRPPRLPRPRPRPMCSPRP: -0.119; for RRIRHRPPRLPRPRPRPQANPRP: 0.0174; for RRIRDRPPRLPRPRPRPWAVPRP: -0.066.
The same measure for RRIRPRPPRLPRPRPRPWSCPRP: -0.165; for RRIRHRPPRLPRPRPRPLFVPRP: -0.471; for RRIRCRPPRLPRPRPRPQTKPRP: 0.146.
Consider RRIRCRPPRLPRPRPRPMLMPRP, for which the “shrunken log2 fold change” value is 0.0436.
On to RRIRDRPPRLPRPRPRPWAEPRP, for which the “shrunken log2 fold change” value came to 0.302.
Turning to RRIRERPPRLPRPRPRPSHRPRP, the “shrunken log2 fold change” value is -0.0834.
On to RRIRLRPPRLPRPRPRPPWCPRP, for which the “shrunken log2 fold change” value was determined as 0.402.
The same measure for RRIRVRPPRLPRPRPRPHWWPRP: 0.355.
The same measure for RRIRSRPPRLPRPRPRPALDPRP: 0.137.
The same measure for RRIRCRPPRLPRPRPRPWSHPRP: -0.0223; for RRIRFRPPRLPRPRPRPWWAPRP: -0.377.
With RRIRSRPPRLPRPRPRPWILPRP, the “shrunken log2 fold change” value was -0.0844.
Consider RRIRNRPPRLPRPRPRPHIQPRP, for which the “shrunken log2 fold change” value was 2.34.
The same measure for RRIRWRPPRLPRPRPRPVMYPRP: -0.0288; for RRIRFRPPRLPRPRPRPKHWPRP: 0.0787; for RRIRIRPPRLPRPRPRPMVEPRP: 3.19.
The same measure for RRIRFRPPRLPRPRPRPPNTPRP: -0.0857; for RRIRERPPRLPRPRPRPMLTPRP: 0.151; for RRIRWRPPRLPRPRPRPDYAPRP: -0.0174.
Consider RRIRTRPPRLPRPRPRPHYCPRP, for which the “shrunken log2 fold change” value was -0.418.
The same measure for RRIRWRPPRLPRPRPRPDKMPRP: -0.0535; for RRIRARPPRLPRPRPRPPGEPRP: 0.381.
RRIRNRPPRLPRPRPRPLQPPRP: the “shrunken log2 fold change” value is -0.187.
With RRIRGRPPRLPRPRPRPAKQPRP, the “shrunken log2 fold change” value was found to be 0.199.
As to RRIRNRPPRLPRPRPRPEHPPRP, the “shrunken log2 fold change” value was 0.115.
In the case of RRIRFRPPRLPRPRPRPWFYPRP, the “shrunken log2 fold change” value is -0.587.
Regarding RRIRVRPPRLPRPRPRPVYMPRP, the “shrunken log2 fold change” value is -0.184.
The same measure for RRIRLRPPRLPRPRPRPSDMPRP: -0.18; for RRIRQRPPRLPRPRPRPCSKPRP: -0.18; for RRIRMRPPRLPRPRPRPVETPRP: -0.00114.
With RRIRQRPPRLPRPRPRPWAAPRP, the “shrunken log2 fold change” value is 0.0922.
As for RRIRNRPPRLPRPRPRPYVMPRP, the “shrunken log2 fold change” value was -1.01.
The same measure for RRIRHRPPRLPRPRPRPDLNPRP: 0.015.
The same measure for RRIRFRPPRLPRPRPRPVKGPRP: -0.178.
With RRIRCRPPRLPRPRPRPMAGPRP, the “shrunken log2 fold change” value is -0.0712.
With RRIRERPPRLPRPRPRPWPIPRP, the “shrunken log2 fold change” value was -0.679.
RRIRERPPRLPRPRPRPATTPRP: the “shrunken log2 fold change” value was -0.0752.
On to RRIRIRPPRLPRPRPRPFAAPRP, for which the “shrunken log2 fold change” value was -0.258.
Take RRIRNRPPRLPRPRPRPSPAPRP: the “shrunken log2 fold change” value was found to be 0.0876.
The same measure for RRIRERPPRLPRPRPRPCLVPRP: 0.0202.
Regarding RRIRNRPPRLPRPRPRPNGDPRP, the “shrunken log2 fold change” value is -0.0698.
With RRIRWRPPRLPRPRPRPLFYPRP, the “shrunken log2 fold change” value is -0.427.
The same measure for RRIRTRPPRLPRPRPRPTRTPRP: 0.767.
The same measure for RRIRPRPPRLPRPRPRPICVPRP: -0.215.
